Our source for the % of … [SEQ ID NO: 115] Reaction Velocity values is patent publication US9447158B2.

The target in the assay is MAPKAP Kinase II (MK2).

With WLRRIKA, the % of … [SEQ ID NO: 115] Reaction Velocity at an Inhibitor Concentration of 100 µM is 394%.
